Source: the nanobody polyreactivity screen of Harvey et al. (2022)

Experiment: yeast display, Sf9 membrane polyspecificity reagent, FACS + sequencing; frameworks hold sequencing errors
In short: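 Sorting gates, low and high (top ~1%), were placed on anti-HA fluorescence to track expression and on streptavidin fluorescence to track reagent binding. A clone's polyreactivity label is taken from the gate it came out of. The reagent was 10% biotinylated, detergent-solubilized Sf9 membrane, applied for 1 hour at 4 °C to galactose-induced yeast display cells.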

Sequence	polyreactivity (PSR sort gate)
QVQLVESGGGLVQAGGSLRLSCAASGNTFDVYAMGWYRQAPGKEREFVARISGRVGSTYYADSVKGRFTISRDNAKNTVYLQMNSLKPEDTAVYYCAARGRVKYVYGGFGYWGQGTQVTVSS	high polyreactivity
QVQLVESGGGLVQAGGSLRLSCAASGNTFEDYAMGWYRQAPGKERELVAAINSGGSTNYADSVKGRFTISRDNAKNTVYLQMNSLKPEDTAVYYCAAEPGEGFDYWGQGTQVTVSS	low polyreactivity
QVQLVESGGGLVQAGGSLRLSCAASGNTFEYYVMGWYRQAPGKERELVAAITWSTGSTYYADSVKGRFTISRDNAKNTVYLQKNSLKPEDTAVYYCAALYYFIFGRPTRFDYWGQGTQVTVSS	low polyreactivity
QVQLVESGGGLVQAGGSLRLSCAASGNTFFYYAMGWYRQAPGKERELVAAINRSGGSTYYADSVKGRFTISRDNAKNTVYLQMNSLKPEDTAVYYCARVLPGGWKSRISDYWGQGTQVTVSS	low polyreactivity
QVQLVESGGGLVQAGGSLRLSCAASGNTFGIYAMGWYRPAPGKERELVAAISSGTSTNYADSVKGRFTISRDNAKNTVYLQMNSLKPEDTAVYYCNADDQYQDVREDYWGQGTQVTVSS	low polyreactivity
QVQLVESGGGLVQAGGSLRLSCAASGNTFGNYGMGWYRQAPGKEREFVAAITSRGTSSYYADSVKGRFTISRDNAKNTVYLQMNSLKPEDTAVYYCNARPRYKYPRYDYWGQGTQVTVSS	high polyreactivity
QVQLVESGGGLVQAGGSLRLSCAASGNTFGYYALGWYRQAPGKERELVAGISSGGSTNYADSVKGRFTISRDNAKKTVYFQMNSLKPEDTAVYYCNARRYWLRYDYWGQVTQVTVSS	low polyreactivity
QVQLVESGGGLVQAGGSLRLSCAASGNTFHSYVMGWYRQAPGKERELVAAITSGGSTYYADSVKGRFTISRDNAKNTVYLQMNSLKPEDTAVYYCAVDAWTGESYWEHYYWGQGTQVTVSS	low polyreactivity
QVQLVESGGGLVQAGGSLRLSCAASGNTFIDYAMGWYRQAPGKETELVAAITRGGRTNYADSVKGRFTISRDNAKNTVYLQMNSLKPEDTAVYYCAAALRRRRADFDYWGQGTQVTVSS	high polyreactivity
QVQLVESGGGLVQAGGSLRLSCAASGNTFIRYAMGWYRQAPGKEREFVATITKRGGSTYYADSVKGRFTISRDNAKNTVYLQMNSLKPEDTAVYYCARGPSGTPNGNTPYGDNRYNSWGQGTQVTVSS	low polyreactivity
QVQLVESGGGLVQAGGSLRLSCAASGNTFKYYAMGWYRQAPGKERELVAAISYSGGSTYYADSVKGRFTISRDNAKNTVYFQMNSLKPEDTAVYYCAADLDSERYFLGQGTQVTVSS	low polyreactivity
QVQLVESGGGLVQAGGSLRLSCAASGNTFLPYAMGWYRQAPGKERELVAAISWSGGSTYYADSVKGRFTISRDNAKNTVYLQMNSLKPEDTAVYYCARRGYQRYLSSYYYWGQGTQVTVSS	high polyreactivity
QVQLVESGGGLVQAGGSLRLSCAASGNTFLYYAMGWYRQAPGKEMELVASINLSDGSTYYADSVKGRFTISRDNAKNTVYLQMNSLKPEDTAVYYCAAVYGGYTIYDYWGQGTQVTVSS	low polyreactivity
QVQLVESGGGLVQAGGSLRLSCAASGNTFNKYAMGWYRQAPGKERELVAAISYSGGSTYYADSVKGRFTISRDNAKNTVYLQMNSLKPEDTAVYYCNAVYYVYPRRYDYWGQGTQVSVSS	high polyreactivity
QVQLVESGGGLVQAGGSLRLSCAASGNTFNPNAMGWYRQAPGKERELVAVIRFRGGSTYYADSVKGRFTISRDNAKNTVYLQMNSLKTEDTAVYDCAADFLYYYLRYYYWGQGTQVTVSS	high polyreactivity
QVQLVESGGGLVQAGGSLRLSCAASGNTFPLYAMGWYRQAPGKEREMVAAITSSAGSTYYADSVKGRFTISRDNAKNTVYLQMNSLKPEDTAVYYCNARRSDGKVVGYSYSHRNVEYWGQGTQVTVSS	low polyreactivity
QVQLVESGGGLVQAGGSLRLSCAASGNTFPPNAMGWSRQAPGKERELVAAISWSGDSTYYADSVKGRFTISRDNAKNTVYLQMNSLKPEDTAVYYCAAAIFGEYEYWGQGTQVTVSS	low polyreactivity
